Results: patent publication US7273847B2, “Peptides with antioxidant and antimicrobial properties” (priority 2000, dated 2007)
Entries after “also recorded” stand apart in the source; their conditions may differ.

What was measured:
RAW 264.7 macrophages = test: Protection from t-BOOH induced cell death (Trypan Blue exclusion); format: cell-based, murine; settings: 40 μM t-BOOH, 24 hrs; for Half maximal concentration for protection from t-BOOH-induced death: Trypan Blue
Protocol: A murine macrophage cell line (RAW 264.7) was adhered to 24-well plates (2×10^4 cells/well) in Ham's F12 media containing 10% FBS overnight at 37° C. in a 10% CO2 atmosphere. After washing, the cells were exposed to 40 μM tert-butyl hydroperoxide (t-BOOH) in serum free Ham's F12 for 24 hrs in the presence of various concentrations of the surfactant proteins. Viability was assessed for exclusion of the vital dye Trypan Blue.
Exposure of cultured mammalian cells to tert-butylhydroperoxide (t-BOOH) promotes a variety of toxic events including depletion of glutathione, mitochondrial dysfunction and peroxidation of membrane lipids, as described in Sestili et al., FEBS Lett. 457(1):139-143 (1999). To determine if SP-A and SP-D protect cells from oxidative stress, RAW 264.7 murine macrophages were exposed to 40 μM t-BOOH for 24 hrs in the presence of SP-A or SP-D at concentrations from 0.01 to 50 μg/ml. Cell death was assessed by staining cells with the vital dye Trypan Blue. As depicted by FIG. 5, RAW 264.7 macrophages were incubated with various concentrations of SP-A or SP-D and 40 μM t-BOOH. Cell viability was assessed by counting the percentage of cells that excluded the vital dye Trypan Blue. Data are mean±S.E.M., n=3 for collectins except 50 μg/ml point where n=2.

model surfactant lipids = test: AIBN-initiated lipid peroxidation of model surfactant lipids; format: biochemical; settings: 3 hours incubation, with or without low concentrations of copper; preliminary data
LDL [1] = test: Continuous spectrophotometric monitoring of conjugated diene formation during copper-induced LDL oxidation; format: biochemical, human; settings: for Effect of addition during the propagation phase of oxidation: 10 μg/ml SP-A at 95, 175 or 195 minutes, 1 μg/ml SP-D at 95, 125 or 155 minutes; for Effect on accumulation of conjugated dienes when included at zero time: SP-A 1.0-10 μg/ml, SP-D 0.01-1 μg/ml; for Concentration of complete inhibition of oxidation (conjugated diene formation): added at zero time, 10 μM copper, room temperature, absorbance 234 nm
Protocol: (§1) Stock solutions of 10 mM CuSO4 were freshly prepared daily. Reaction mixtures containing 1 mg/mi surfactant lipids or 150 μg/ml LDL were incubated with 10 μM CuSO4 for 24 hours or 4 hours, respectively, in the presence of putative oxidation inhibitors or controls at 37° C. in a shaking water bath in accordance with the method of Gelvan et al., Biochim. Biophys. Acta 1035(3):353-360 (1990). Control reactions which included LDL only, 10 μM CuSO4 or protein controls of bovine serum albumin (BSA), rat IgG, recombinant MBP, rat serum and human complement C1q were performed concurrently with experimental samples. Thiobarbituric acid-reactive substances (TBARS) were measured using a method adapted from Gelvan et al., Biochim. Biophys. Acta 1035(3):353-360 (1990). Samples and 0-10 μM […] standards were developed by addition of a solution composed of 0.375% thiobarbituric acid, 15% trichloroacetic acid, and 0.25N HCl at a volume ratio of 1:2, sample: developer. Following incubation at 95° C. for 30 minutes and centrifugation at 14,000 rpm for 15 minutes, an aliquot was read at 540 nm in a spectrophotometer. For continuous assessment of lipid oxidation, the accumulation of conjugated dienes during LDL oxidation was monitored spectrophotometrically in accordance with the method of Esterbauer et al., Free Rad. Med. Biol. 13, 341-390 (1992). Mixtures of 150 μg/ml LDL, 10 μM copper, and various amounts of surfactant proteins or control proteins were placed in quartz cuvettes and allowed to oxidize at room temperature over 335 minutes. Conjugated diene formation was assessed by measuring absorbance at 234 nm in a spectrophotometer.
The temporal relationship between the addition of SP-A or SP-D and the inhibition of LDL oxidation was determined spectrophotometrically by continuously monitoring conjugated diene accumulation associated with exposure to copper, in accordance with the method of Esterbauer et al., Free Rad. Med. Biol. 13:341-390 (1992). The assay is based on the oxidation dependent rearrangement of 1,4 pentadienyl double bonds of LDL lipids to 1,3-butadienyl double bonds, which absorb in the ultraviolet range. In the presence of 10 μM copper at room temperature, LDL particles resist oxidation for up to 100 minutes as endogenous antioxidants such as atocopherol are consumed. At that point, the rate of oxidation increases in proportion to the concentration of initiating radicals, reaching a plateau when all unsaturated fatty acids are consumed.
According to FIG. 2, conjugated diene formation during copper-induced LDL oxidation was monitored spectrophotometrically by measuring absorbance at 234 nm.

LDL [2] = test: TBARS assay of copper-induced oxidation of LDL; format: biochemical, human; settings: for I.C.50 (half-maximal point) for inhibition of copper-induced oxidation of LDL / Concentration of complete inhibition of LDL oxidation (to basal levels) / IC50: 10 μM Cu2+, TBARS; for I.C.50 (half-maximal point) for inhibition of copper-induced oxidation of LDL: 4 hours; for IC50: read-out: I.C.50 for inhibition of copper-induced oxidation of LDL; for TBARS LDL Malondialdehyde: mean ± S.E.M., n=3; for Concentration required to provide the same level of antioxidant protection: LDL, level of 500 μg/ml of rat serum
Protocol: Substrates for lipid oxidation included mixtures of natural and synthetic glycerophospholipids that are found in pulmonary surfactant and human LDL. The surfactant lipid mix, composed of egg phosphatidylcholine, dipalmitoylphosphatidylcholine, cholesterol and 1-oleoyl-2-linoleoyl-sn-glycero-3-phosphocholine (1:1:0.15:0.15, w/w, respectively) (Avanti Polar Lipids) in chloroform, was dried to a film under nitrogen. Following hydration in PBS or 0.15 M NaCl for 30 min, multilamellar vesicles were generated by vigorous vortexing for 5 minutes. LDL were isolated from the plasma of normal blood donors by density gradient ultracentrifugation (density=1.019-1.063 g/ml) as previously described in Qin et al., Am. J. Physiol. 274(5 Pt 2): H1836-1840 (1998), and stored in saline-EDTA. Just prior to use, EDTA was removed by dialysis against PBS, and the concentration of LDL was determined by Lowry assay (in milligrams of LDL-associated protein).
as §1
The data are set forth graphically in FIG. 3. Various concentrations of recombinant wild type SP-A (circle), mutant SP-A containing a deletion of the collagen-like domain (square) and mutant SP-A containing only the neck and C-lectin domain (CLD) (triangle) were incubated with LDL in the presence of 10 μM Cu^2+, and lipid peroxidation was quantified by TBARS assay. Data are means, n=3-4.

surfactant lipids = test: TBARS assay of copper-induced oxidation of surfactant lipids; format: biochemical; settings: for I.C.50 (half maximal concentration) for inhibition of copper-induced oxidation of surfactant lipids / Concentration of complete inhibition / maximal protection of surfactant lipids: 10 μM Cu2+, 24 hr, TBARS; for I.C.50 (half maximal concentration) for inhibition of copper-induced oxidation of surfactant lipids: 37° C.; for Lipid peroxidation (LPO) produced by copper or iron: 24 hr incubation, 10 μM copper or iron; for TBARS Surfactant lipids Malondialdehyde: mean ± S.E.M., n=3; for IC50: assuming rat SP-A M.W.=600,000, rat SP-D M.W.=500,000, read-out: I.C.50 for inhibition of copper-induced oxidation of surfactant lipids
E. coli = test: Light scattering by growing bacteria in broth (O.D. 400 nm); settings: for Blocking of attenuation of light scattering by J5 LPS vesicles: 300 μg/ml J5 LPS vesicles, 100 μg/ml collectin
[3] = surfactant lipids, copper-induced

Molecule | Concentration at which protection reached a plateau (RAW 264.7 macrophages) | Half maximal concentration for protection from t-BOOH-induced death (RAW 264.7 macrophages) [µg/mL] | Inhibition of AIBN-initiated LPO (model surfactant lipids) | Effect of addition during the propagation phase of oxidation (LDL [1]) | Effect on accumulation of conjugated dienes when included at zero time (LDL [1]) | Concentration of complete inhibition of oxidation (conjugated diene formation) (LDL [1]) [µg/mL] | I.C.50 (half-maximal point) for inhibition of copper-induced oxidation of LDL (LDL [2]) [µg/mL] | Concentration of complete inhibition of LDL oxidation (to basal levels) (LDL [2]) [µg/mL] | IC50 (LDL [2]) [nM] | Concentration required to provide the same level of antioxidant protection (LDL [2]) [µg/mL] | I.C.50 (half maximal concentration) for inhibition of copper-induced oxidation of surfactant lipids (surfactant lipids) [µg/mL] | Concentration of complete inhibition / maximal protection of surfactant lipids (surfactant lipids) [µg/mL] | Lipid peroxidation (LPO) produced by copper or iron (surfactant lipids) | IC50 (surfactant lipids) [nM] | Effect of alkylation with iodoacetamide on the antioxidant effects (surfactant lipids; [3]) | Blocking of attenuation of light scattering by J5 LPS vesicles (E. coli) | further results
SP-A: Native surfactant protein A isolated from the alveolar wash of silica-pretreated rats | approximately 1 μg/ml | 0.52 | did not inhibit LPO, unless copper was added at low concentrations | arrested lipid oxidation almost immediately; also recorded: conjugated diene formation was completely arrested at the point of addition | blocked the accumulation of conjugated dienes in a dose-dependent manner | 10 | 4.75 | 10 | 7.9 | 2.5 | 5.07 | 10 | block lipid peroxidation | 8.4 | completely blocked the antioxidant effects | completely | TBARS LDL Malondialdehyde (LDL [2]; LDL + Cu2+ + 10 μg/ml protein): 0.0 ± 0.0 µM; TBARS Surfactant lipids Malondialdehyde (surfactant lipids; Lipid + Cu2+ + 10 μg/ml protein): 0.23 ± 0.01 µM; Effect of presaturation with 70 uM copper or addition of 2 mM Ca2+ on antioxidant activity (surfactant lipids; [3]): neither the presaturation of SP-A with 70 uM copper, as indicated in Table 1, below, or the addition of 2 mM Ca^2+ (not shown) had a significant effect on the activity; Concentration required to achieve the same level of inhibition of oxidation (surfactant lipids; surfactant lipids, level reached by 500 μg/ml rat serum): about 5.0 μg/ml
SP-D: Native surfactant protein D from rat alveolar wash; mouse SP-D was used interchangeably with rat SP-D (protein) AEMKSLSQRSVPNTCTLVMCSPTENGLPGRDGRDGREGPRGEKGDPGLPGPMGLSGLQGPTGPVGPKGENGSAGEPGPKGERGLSGPPGLPGIPGPAGKEGPSGKQGNIGPQGKPGPKGEAGPKGEVGAPGMQGSTGAKGSTGPKGERGAPGVQGAPGNAGAAGPAGPAGPQGAPGSRGPPGLKGDRGVPGDRGIKGESGLPDSAALRQQMEALKGKLQRLEVAFSHYQKAALFPDGRSVGDKIFRTADSEKPFEDAQEMCKQAGGQLASPRSATENAAIQQLITAHNKAAFLSMTDVGTEGKFTYPTGEPLVYSNWAPGEPNNNGGAENCVEIFTNGQWNDKACGEQRLVICEF | approximately 1 μg/ml | 0.56 | did not inhibit LPO, unless copper was added at low concentrations | arrested lipid oxidation almost immediately; also recorded: conjugated diene formation was completely arrested at the point of addition | blocked the accumulation of conjugated dienes in a dose-dependent manner | 0.5 | 0.14 | 1 | 0.3 | 0.05 | 0.11 | ≥ 0.5 | block lipid peroxidation | 0.2 | completely blocked the antioxidant effects | partially | TBARS LDL Malondialdehyde (LDL [2]; LDL + Cu2+ + 1 μg/ml protein): 0.0 ± 0.0 µM; TBARS Surfactant lipids Malondialdehyde (surfactant lipids; Lipid + Cu2+ + 1 μg/ml protein): 0.27 ± 0.07 µM; I.C.50 fold lower than ApoAIV (surfactant lipids; surfactant lipids oxidation): ~100 fold; I.C.50 fold lower than SP-A (surfactant lipids; surfactant lipids oxidation): approximately 35 fold; Time dependent increase in light scattering (E. coli; 100 μg/ml): inhibited
